Laboratory results reported in patent US20110311550A1 (Scripps Research, published 2011).

How the values were obtained:
[1] = target: T1, HCV E1E2 complex, isolate H77 (genotype 1a) (hepatitis C virus genotype 1a, isolate …, UniProt P27958 192-383; P27958 384-746); test: competition ELISA on lectin-captured H77 E1E2; competitor: Fab P5
T1 construct: also called E1E2 (H77); Folded E1E2

[2] = target: T1, HCV E1E2 complex, isolate H77 (genotype …); test: competition ELISA on lectin-captured H77 E1E2; competitor: Fab P6
[3] = target: T1, HCV E1E2 complex, isolate H77 (genotype …); test: competition ELISA on lectin-captured H77 E1E2; competitor: Fab Q1
[4] = target: T1, HCV E1E2 complex, isolate H77 (genotype …); test: competition ELISA on lectin-captured H77 E1E2; competitor: Fab Q2
[5] = target: T1, HCV E1E2 complex, isolate H77 (genotype …); test: competition ELISA on lectin-captured H77 E1E2; competitor: Fab R1
[6] = target: T1, HCV E1E2 complex, isolate H77 (genotype …); test: competition ELISA on lectin-captured H77 E1E2; competitor: Fab S1
[7] = target: T1, HCV E1E2 complex, isolate H77 (genotype …); test: competition ELISA on lectin-captured H77 E1E2; competitor: Fab T1
[8] = target: T1, HCV E1E2 complex, isolate H77 (genotype …); test: competition ELISA on lectin-captured H77 E1E2; competitor: Fab U1
[9] = target: T1, HCV E1E2 complex, isolate H77 (genotype …); test: competition ELISA on lectin-captured H77 E1E2; competitor: Fab V1
[10] = target: T2, HCV E1E2 complex, isolate H77 (genotype 1a) (hepatitis C virus genotype 1a, isolate …, UniProt P27958 192-383; P27958 384-746); test: ELISA, mAb with E1E2 (H77), then CD81-LEL plate
[11] = target: T2, HCV E1E2 complex, isolate H77 (genotype …); test: apparent affinity: half-maximal binding, ELISA on lectin-captured E1E2
[12] = target: HCV E1E2 complex, isolate HCV-1 (genotype 1a), vaccinia-expressed (hepatitis C virus genotype 1a, isolate …, UniProt P26664 192-383; P26664 384-746); test: as above
[13] = target: T2, HCV E1E2 complex, isolate H77 (genotype …); test: Fab screen after panning on antibody-masked E1E2 (H77)

B1: MAb AR2A (antibody, V domains shown)
VH: LEQSGAEMKKPGASLKVSCKTSGYTFDDYGVTWVRQAPGQGLEWMGWISAYSGNTFYARKFQGRVTMTTDPSTRTAYMELRSLRSDDTAVYFCARDRGLAINGVVFPYFGLDVWGQGTTVTVSS
VL: ELTQSPVSLPVTPGEPASISCRSSQSLLHSNGNHYLDWYLQKPGQSPQLLMYLGSNRASGVPDRFSGSGSGTDFTLKISRVEAEDVGVYYCMQGLQTPWTFGQGTKVEIKR
notes: also called IgG1 of Fab G
**Q.** With B1 as the binder, how does the residual binding [1] read?
**A.** 73%

**Q.** What about the residual binding [2] of the same binder?
**A.** 76%

**Q.** What about the residual binding [3] of the same binder?
**A.** 75%

**Q.** And the residual binding [4]?
**A.** 72%

**Q.** What about the residual binding [5] of the same binder?
**A.** 75%

**Q.** And the residual binding [6]?
**A.** 79%

**Q.** What about the residual binding [7] of the same binder?
**A.** 93%

**Q.** And the residual binding [8]?
**A.** 132%

**Q.** What about the residual binding [9] of the same binder?
**A.** 79%

B2: MAb AR1A (IgG1 from Fab B2) (antibody, V domains shown)
VH: LEQSGAEVKKPGSSVKVSCRASGSPYSSYTITWVRQAPGQGLEWMGGIILMTGKANYAQKFQGRVTITADRATATAYMEMSSLTSDDTAIYYCARDPYVYAGDDVRSLSRWGQGTPVIVSS
VL: not shown
notes: also called ARIA
**Q.** For B2, which IC50 [10] is on record?
**A.** 5.7 nM

**Q.** And the EC50 [11]?
**A.** 3.8 nM

**Q.** And the EC50 [12]?
**A.** 2.6 nM

B3: MAb AR3C (IgG1 from Fab H3) (antibody, V domains shown)
VH: LEQSGAEVKKPGSSVKVSCETSGGTLDNYALNWVRQAPGQGLEWIGGVVPLFGTTRNAQKFQGRVTISDDKSTGTGHMELRSLRSEDTAVYYCVRSVTPRYCGGGFCYGEFDYWGQGTLVTVSS
VL: ELTQSPATLSVSPGERATLSCRASQSVSSNLAWYQQKPGQAPRLLIYGASTRATGIPARFSGSGSGTEFTLTVSRLEPEDSAVYFCQQYYRSPLTFGGGTKVEIKR
**Q.** Which IC50 [10] does the source give for B3 here?
**A.** 2 nM

**Q.** What about the EC50 [11] of the same binder?
**A.** 2.3 nM

**Q.** And the EC50 [12]?
**A.** 1.4 nM

B4: Fab L7 (Fab, V domains shown)
VH: VQLLEQSGAEVKKPGSSVKVTCKVPGDTFRSYVITWVRQAPGQGLEWLGGILPFFGTTNLAQKFQGRVTLTADESTTTAYMELSSLRAEDTAVYYCAKAGDLAFGGVIAGGVPHLSHFDPWGQGTLVTVSS
VL: ELTQSPGTLSLSPGERATLSCRASQSVPSSYLGWYQQKPGQAPRLLIYGASSRATGIPERFSGSGSGTDFTLTISRLEPEDFAVYYCQQYGSSLSFGQGTKVDLKR
**Q.** Does B4 bind [13]?
**A.** binds

B5: Fab B7 (Fab, V domains shown)
VH: VQLLEQSGAEVKKPGSSVKVSCRASGSPYSSYTITWVRQAPGQGLEWMGGIILMTGKANYAQKFQGRVTITADRATATAYMEMSSLTSDDTAIYYCARDPYVYAGDDVWSLSRWGQGTPVIVSS
VL: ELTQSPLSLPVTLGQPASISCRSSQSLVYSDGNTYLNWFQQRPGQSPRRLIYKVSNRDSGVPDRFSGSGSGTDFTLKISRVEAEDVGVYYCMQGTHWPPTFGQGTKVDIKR
**Q.** Does B5 bind [13]?
**A.** binds
